Results from patent publication US20200040059A1.

Key:
[1] = target: human CD28, full length, on transfected HEK293 cells (human) (UniProt P10747); assay: flow cytometry, Fc fusion at 66.6 nM on HEK293 cells transfected with CD28
[2] = target: human PD-L1, full length, on transfected HEK293 cells (human) (UniProt Q9NZQ7); assay: flow cytometry, Fc fusion at 22.2 nM on HEK293 cells transfected with PD-L1
[3] = target: human CTLA4, full length, on transfected HEK293 cells (human) (UniProt P16410); assay: flow cytometry, Fc fusion at 66.6 nM on HEK293 cells transfected with CTLA4
CD28 (human) = CD28 (human) (UniProt P10747); assay: flow cytometry on HEK293 cells transfected with CD28
PD-L1 (human) = PD-L1 (human) (UniProt Q9NZQ7); assay: flow cytometry on HEK293 cells transfected with PD-L1
CTLA4 (human) = CTLA4 (human) (UniProt P16410); assay: flow cytometry on HEK293 cells transfected with CTLA4
[4] = target: human CD28, full-length, expressed on transfected Expi293 cells (human) (UniProt P10747); assay: flow cytometry on CD28-expressing Expi293 cells
[5] = target: human PD-L1, full-length, expressed on transfected Expi293 cells (human) (UniProt Q9NZQ7); assay: flow cytometry on PD-L1-expressing Expi293 cells
[6] = target: human CTLA-4, full-length, expressed on transfected Expi293 cells (human) (UniProt P16410); assay: flow cytometry on CTLA-4-expressing Expi293 cells
[7] = target: PD-1 (Homo sapiens (Human)) (UniProt Q15116); assay: flow cytometry, cells expressing PD-1
[8] = target: CD80 (Homo sapiens (Human)) (UniProt P33681); assay: flow cytometry, cells expressing CD80

CD80 IgV Fc (wild-type CD80 IgV domain fused to Fc), sequence (P33681 35-141 limits assumed): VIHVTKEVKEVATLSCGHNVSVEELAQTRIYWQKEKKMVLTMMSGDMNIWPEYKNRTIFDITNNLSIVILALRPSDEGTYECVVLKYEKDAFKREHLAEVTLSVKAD
PD-L1 (human), sequence (Q9NZQ7 19-290 limits assumed): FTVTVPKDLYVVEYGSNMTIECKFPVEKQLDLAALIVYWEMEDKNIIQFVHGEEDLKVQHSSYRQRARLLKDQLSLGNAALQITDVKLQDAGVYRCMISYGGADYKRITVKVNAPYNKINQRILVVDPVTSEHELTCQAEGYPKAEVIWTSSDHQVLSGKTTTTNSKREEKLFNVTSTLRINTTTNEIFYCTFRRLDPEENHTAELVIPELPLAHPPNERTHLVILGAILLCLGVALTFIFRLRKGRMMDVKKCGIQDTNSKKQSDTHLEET
human PD-L1, full-length, expressed on transfected Expi293 cells (human), sequence (Q9NZQ7 19-290 limits assumed): as above
human PD-L1, full length, on transfected HEK293 cells (human), sequence (Q9NZQ7 19-290 limits assumed): as above
human CTLA4, full length, on transfected HEK293 cells (human), sequence (P16410 36-223 limits assumed): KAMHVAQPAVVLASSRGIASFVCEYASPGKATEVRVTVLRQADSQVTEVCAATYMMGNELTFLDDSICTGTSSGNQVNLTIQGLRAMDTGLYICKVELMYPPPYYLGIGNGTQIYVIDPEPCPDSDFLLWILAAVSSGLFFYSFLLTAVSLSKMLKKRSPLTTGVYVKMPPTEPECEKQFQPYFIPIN
CTLA4 (human), sequence (P16410 36-223 limits assumed): as above
human CTLA-4, full-length, expressed on transfected Expi293 cells (human), sequence (P16410 36-223 limits assumed): as above

CD80 IgV Fc (wild-type CD80 IgV domain fused to Fc) (from UniProt P33681 35-141) (Fc fusion)
MFI at 66.6 nM [1]: 1620 MFI
MFI at 22.2 nM [2]: 1770 MFI
MFI at 66.6 nM [3]: 20700 MFI

CD80 IgV-Fc A71D (from UniProt P33681 35-141) (Fc fusion)
MFI at 66.6 nM (CD28 (human)): 16800 MFI
MFI at 22.2 nM (PD-L1 (human)): 29600 MFI
MFI at 66.6 nM (CTLA4 (human)): 220000 MFI

CD80 IgV-Fc E35D/M47I/L65P/D90N (from UniProt P33681 35-141) (Fc fusion)
MFI at 66.6 nM (CD28 (human)): 2530 MFI
MFI at 22.2 nM (PD-L1 (human)): 4030 MFI
MFI at 66.6 nM (CTLA4 (human)): 4410 MFI

CD80 IgV-Fc E35D/T57I/L70Q/A71D (from UniProt P33681 35-141) (Fc fusion)
MFI at 66.6 nM (CD28 (human)): 21300 MFI
MFI at 22.2 nM (PD-L1 (human)): 2420 MFI

CD80 IgV-Fc L25S/E35D/M47I/D90N (from UniProt P33681 35-141) (Fc fusion)
MFI at 66.6 nM (CD28 (human)): 4840 MFI
MFI at 22.2 nM (PD-L1 (human)): 20900 MFI
MFI at 66.6 nM (CTLA4 (human)): 61300 MFI

CD80 IgV-Fc L72P/T79I (from UniProt P33681 35-141) (Fc fusion)
MFI at 66.6 nM (CD28 (human)): 3400 MFI
MFI at 22.2 nM (PD-L1 (human)): 6020 MFI
MFI at 66.6 nM (CTLA4 (human)): 50200 MFI

CD80 IgV-Fc M42I/I61V/A71D (from UniProt P33681 35-141) (Fc fusion)
MFI at 66.6 nM (CD28 (human)): 6070 MFI
MFI at 22.2 nM (PD-L1 (human)): 4230 MFI
MFI at 66.6 nM (CTLA4 (human)): 54500 MFI

CD80 IgV-Fc M47I/E88D (from UniProt P33681 35-141) (Fc fusion)
MFI at 66.6 nM (CD28 (human)): 7340 MFI
MFI at 22.2 nM (PD-L1 (human)): 97700 MFI
MFI at 66.6 nM (CTLA4 (human)): 105000 MFI

CD80 IgV-Fc M47V/N48H (from UniProt P33681 35-141) (Fc fusion)
MFI at 66.6 nM (CD28 (human)): 14600 MFI
MFI at 22.2 nM (PD-L1 (human)): 146000 MFI
MFI at 66.6 nM (CTLA4 (human)): 207000 MFI

CD80 IgV-Fc P51A/A71D (from UniProt P33681 35-141) (Fc fusion)
MFI at 66.6 nM (CD28 (human)): 4260 MFI
MFI at 22.2 nM (PD-L1 (human)): 5530 MFI

CD80 IgV-Fc S44P/A71D (from UniProt P33681 35-141) (Fc fusion)
MFI at 66.6 nM (CD28 (human)): 2740 MFI
MFI at 22.2 nM (PD-L1 (human)): 6310 MFI
MFI at 66.6 nM (CTLA4 (human)): 8840 MFI

CD80 IgV-Fc T13R/C16R/L70Q/A71D (from UniProt P33681 35-141) (Fc fusion)
MFI at 66.6 nM (CD28 (human)): 16100 MFI
MFI at 22.2 nM (PD-L1 (human)): 9520 MFI
MFI at 66.6 nM (CTLA4 (human)): 197000 MFI

CD80 IgV-Fc T57I (from UniProt P33681 35-141) (Fc fusion)
MFI at 66.6 nM (CD28 (human)): 23600 MFI
MFI at 22.2 nM (PD-L1 (human)): 3380 MFI
MFI at 66.6 nM (CTLA4 (human)): 394000 MFI

CD80 IgV-Fc T79P (from UniProt P33681 35-141) (Fc fusion)
MFI at 66.6 nM (CD28 (human)): 2660 MFI
MFI at 22.2 nM (PD-L1 (human)): 4410 MFI
MFI at 66.6 nM (CTLA4 (human)): 2000 MFI

CD80 IgV-Fc V22I/L70M/A71D (from UniProt P33681 35-141) (Fc fusion)
MFI at 66.6 nM (CD28 (human)): 22800 MFI
MFI at 22.2 nM (PD-L1 (human)): 33400 MFI

CD80 variant A91G/S103P ECD-Fc fusion (from UniProt P33681 35-242)
MFI [4]: 39 MFI
MFI [5]: 9 MFI

CD80 variant E24G/R29D/Y31L/Q33H/K36G/M38I/T41A/M43R/M47T/F59L/E81V/L85R/K89N/A91T/F92P/K93V/R94L/H96R ECD-Fc fusion
MFI [4]: 1070 MFI
MFI parental ratio (ratio to WT CD80 ECD-Fc) [4]: 0.08
MFI [6]: 1020 MFI
MFI parental ratio (ratio to WT CD80 ECD-Fc) [6]: 0.02
MFI [5]: 1120 MFI
MFI parental ratio (ratio to WT CD80 ECD-Fc) [5]: 0.06

CD80 variant E52G/L70Q/A91G/T120S/T130A ECD-Fc fusion (from UniProt P33681 35-242)
MFI [6]: 245 MFI
MFI [5]: 6 MFI

CD80 variant IgV-Fc A26E/E35D/M47L/L85Q (from UniProt P33681 35-141) (Fc fusion)
MFI at 66.6 nM [1]: 2270 MFI
MFI at 22.2 nM [2]: 55500 MFI
MFI at 66.6 nM [3]: 40300 MFI

CD80 variant IgV-Fc A26P/E35D/M43I/L85Q/E88D (from UniProt P33681 35-141) (Fc fusion)
MFI at 66.6 nM [1]: 5410 MFI
MFI at 22.2 nM [2]: 9510 MFI
MFI at 66.6 nM [3]: 83100 MFI

CD80 variant IgV-Fc E23G/A26S/E35D/T62N/A71D/L72V/L85M (from UniProt P33681 35-141) (Fc fusion)
MFI at 66.6 nM [1]: 5480 MFI
MFI at 66.6 nM [3]: 59000 MFI

CD80 variant IgV-Fc E35D/D46V/L85Q (from UniProt P33681 35-141) (Fc fusion)
MFI at 66.6 nM [1]: 7510 MFI
MFI at 22.2 nM [2]: 38100 MFI
MFI at 66.6 nM [3]: 86000 MFI

CD80 variant IgV-Fc E35D/M43L/L70M (from UniProt P33681 35-141) (Fc fusion)
MFI at 22.2 nM [2]: 40600 MFI
MFI at 66.6 nM [3]: 102000 MFI

CD80 variant IgV-Fc L70Q/A71D (from UniProt P33681 35-141) (Fc fusion)
MFI at 66.6 nM [1]: 18600 MFI
MFI at 22.2 nM [2]: 1690 MFI
MFI at 66.6 nM [3]: 45000 MFI

CD80 variant IgV-Fc M47V/I69F/A71D/V83I (from UniProt P33681 35-141) (Fc fusion)
MFI at 66.6 nM [1]: 15900 MFI
MFI at 22.2 nM [2]: 3400 MFI
MFI at 66.6 nM [3]: 76900 MFI

CD80 variant IgV-Fc Q27H/E35G/A71D/L72P/T79I (from UniProt P33681 35-141) (Fc fusion)
MFI at 22.2 nM [2]: 1450 MFI
MFI at 66.6 nM [3]: 85100 MFI

CD80 variant IgV-Fc Q27L/E35D/M47I/T57I/L70Q/E88D (from UniProt P33681 35-141) (Fc fusion)
MFI at 22.2 nM [2]: 1050 MFI
MFI at 66.6 nM [3]: 59800 MFI

CD80 variant IgV-Fc T41S/T57I/L70R (from UniProt P33681 35-141) (Fc fusion)
MFI at 66.6 nM [1]: 4900 MFI
MFI at 22.2 nM [2]: 19500 MFI
MFI at 66.6 nM [3]: 59800 MFI

CD80 variant IgV-Fc V20I/A71D (from UniProt P33681 35-141) (Fc fusion)
MFI at 22.2 nM [2]: 3550 MFI
MFI at 66.6 nM [3]: 60300 MFI

CD80 variant IgV-Fc V22L/E35D/M43L/A71G/D76H (from UniProt P33681 35-141) (Fc fusion)
MFI at 66.6 nM [1]: 1500 MFI
MFI at 22.2 nM [2]: 1850 MFI
MFI at 66.6 nM [3]: 2970 MFI

CD80 variant K36E/I67T/L70Q/A91G/T120S/T130A/N152T ECD-Fc fusion (from UniProt P33681 35-242)
MFI [4]: 8 MFI
MFI [5]: 5 MFI

CD80 variant K37E/F59S/L70Q/A91G/T120S/T130A ECD-Fc fusion (from UniProt P33681 35-242)
MFI [4]: 20 MFI
MFI [6]: 74 MFI
MFI [5]: 6 MFI

CD80 variant K89E/T130A ECD-Fc fusion (from UniProt P33681 35-242)
MFI [6]: 148 MFI

CD80 variant K89R/D90K/A91G/F92Y/K93R/N122S/N178S ECD-Fc fusion (from UniProt P33681 35-242)
MFI [4]: 41700 MFI
MFI [6]: 49400 MFI

CD80 variant L70Q/A91G/T110A/T120S/T130A ECD-Fc fusion (from UniProt P33681 35-242)
MFI [6]: 14 MFI

CD80 variant N63S/L70Q/A91G/T120S/T130A ECD-Fc fusion (from UniProt P33681 35-242)
MFI [4]: 124 MFI
MFI [6]: 165 MFI
MFI [5]: 6 MFI

variant PD-L1 ECD-Fc I36T, M97L, Q155H, F193S, N201Y (Fc fusion)
MFI at 20 nM [7]: 69
MFI at 20 nM [8]: 1250

variant PD-L1 ECD-Fc K28I, S99G (Fc fusion)
MFI at 20 nM [7]: 830
MFI at 20 nM [8]: 693

variant PD-L1 ECD-Fc L35P, I36S, M97L, K111E (from UniProt Q9NZQ7 19-238) (Fc fusion)
MFI at 20 nM [7]: 190
MFI at 20 nM [8]: 155

variant PD-L1 ECD-Fc M18I, I36T, E53G, M97L, K144E, E199G, V207A (from UniProt Q9NZQ7 19-238) (Fc fusion)
MFI at 20 nM [7]: 104
MFI at 20 nM [8]: 47400

variant PD-L1 ECD-Fc Y10F, M18V, S99G, Q138R, T203A (from UniProt Q9NZQ7 19-238) (Fc fusion)
MFI at 20 nM [7]: 70
MFI at 20 nM [8]: 412
